The test system of experiment [1] is CD4 T cells. Description: CFSE proliferation assay with soluble peptides. Type of experiment: cell-based, human. To be noted: soluble peptide, PBMCs from T1D and HC subjects, 7 days. How it is done: FIG. 14A-14B. […] Freshly isolated CFSE-labelled PBMCs from T1D and HC subjects were cultured in the presence or absence of indicated peptides for 7 days. Samples were stained, acquired and analyzed by FlowJo. CD4 T cells were gated and percentage of divided (CFSElow T cells) were determined. […] All peptides induced significant proliferation from diabetogenic subjects compared to HCs. n=4 per subject group, *p<0.05 by Two-way ANOVA with Sidak's multiple comparisons test. […] (FIG. 14B) Overlays show upregulation of CD69 by gated CFSElow T cells (red lines) versus […] non-proliferating (green) CD4 T cells from three subjects and three independent experiments. Numbers indicate percentages (Mean±SEM) of CFSElow CD4 T cells. CFSE proliferation assay. Freshly isolated PBMCs were washed twice with warm (37° C.) 1×PBS to remove serum that affect staining and the cells were resuspended in warm (37° C.) 1×PBS at a density of 1.5-2.0×10^6 cells/ml. Cells were labeled with 1 μM CFSE (eBioscience) for 1-2 min at 37° C. with continuous vortexing. The labeling reaction was quenched by adding chilled complete culture media. […] After 7 days of incubation, cultures were stained as indicated in FIG. legends and proliferation assessed by determining frequency of CFSElow CD4 T cells.

The next experiment concerns HLA-DQ8 monomers. Description: Gentle SDS-PAGE assay of peptide binding to DQ8. To be noted: 100 μM peptide, 0.5 μM HLA-DQ8 monomers, 37° C., 72 h, pH 5.5. Further details: species or system human. The method, then:
Analysis of x-Id peptide binding to DQ8 using gentle SDS-PAGE assay. Gentle SDS-PAGE was used to assess formation of stable complexes between peptides and HLA-DQ8 molecules as previously described (Kim et al., 2013; Sadegh-Nasseri and Germain, 1991). Briefly, 0.5 μM of HLA-DQ8 monomers (provided by NIH tetramer core facility) were treated with thrombin to cleave and remove CLIP peptide. […] Reactions were neutralized, mixed with equal volumes of SDS-PAGE sample buffer containing 0.1% SDS (final concentration) and placed for 15 min at room temperature and run on 10% PAGE gels and silver-stained using a standard protocol.

Experiment [2] concerns CD4 T cells. Description: CFSE proliferation assay with immobilized peptide-loaded DQ8 complexes. It counts as cell-based, human. The note with it: PBMCs from DQ8+ T1D subjects, 7 days. The method, then: CFSE proliferation assay. Freshly isolated PBMCs were washed twice with warm (37° C.) 1×PBS to remove serum that affect staining and the cells were resuspended in warm (37° C.) 1×PBS at a density of 1.5-2.0×10^6 cells/ml. Cells were labeled with 1 μM CFSE (eBioscience) for 1-2 min at 37° C. with continuous vortexing. The labeling reaction was quenched by adding chilled complete culture media. CFSE-labeled cells were washed in 1×PBS, resuspended in complete media, and plated into 24-well tissue culture plates (1.5-2.0×10^6 cells/well in 1 mL complete culture medium). […] Alternatively, in a separate experiment, to evaluate the mAb-specific proliferative response, purified mAbR and mAbN (described later in the method) concentration of 2.5 and 5 ug, immobilized into the wells of 24-well plates, and used to stimulate CFSE-labeled PBMCs. CFSE labelled cells without stimulation and with CD3-28 stimulation were taken as specific negative and positive controls respectively. After 7 days of incubation, cultures were stained as indicated in FIG. legends and proliferation assessed by determining frequency of CFSElow CD4 T cells.

Experiment [3] deals with CD4 T cells from T1D subjects (antigen receptors not identified). The experiment is described as follows: flow cytometry, tetramer staining of CD4 T cells; mimotope-stimulated cultures, AB BLOCKADE (cells preincubated with x-mAbR).
Experiment [4] has the same target. The experiment is described as follows: flow cytometry, tetramer staining of CD4 T cells; x-Id-stimulated cultures, AB BLOCKADE (cells preincubated with x-mAbR).
Experiment [5] has the same target. Description: flow cytometry, tetramer staining of CD4 T cells; unstimulated cultures. A general note: Flow cytometry measures light scatter and fluorescence of single cells or particles in a stream.
Experiment [6] has the same target. The experiment is described as follows: flow cytometry, tetramer staining of CD4 T cells; x-Id-stimulated cultures, NO AB.
Experiment [7] has the same target. The experiment is described as follows: flow cytometry, tetramer staining of CD4 T cells; mimotope-stimulated cultures, NO AB.
The conditions of experiment [8]: Wang et al., 2018; cited from earlier work.

No end group written: not given here.

Turning to “CARQEDTAMVYYFDYW (listed as Homo sapiens) [x-Id]”, the “proliferation of CD4 T cells (CFSElow)” value with CD4 T cells [1] is given as “stimulates CD4 T cells from T1D, but not HC, subjects”. Moreover, the “formation of SDS-stable complexes with soluble DQ8” value (“formation of SDS-stable complexes” below) in the experiment with HLA-DQ8 monomers is listed as “forming SDS-stable complexes”.

Take “CARQRFWSGPLFDYW [h-Id, CDR3 peptide of the IGVH04-b+ IgD+ clonotype from HC #1]”: the “proliferation of CD4 T cells (CFSElow)” value in the experiment with CD4 T cells [1] is reported as “did not elicit proliferation of CD4 T cells from either T1D or HCs”. Besides, the “stimulation of CD4 T cells (CFSE proliferation and CD69 upregulation)” value in the experiment on CD4 T cells [2] is recorded as “no significant responses”. In addition, the “formation of SDS-stable complexes” value in the experiment on HLA-DQ8 monomers is “did not form detectable DQ8 complexes”.

In the case of CLIP-TET (peptide-MHC), the tetramer+ among CD4 T cells in experiment [3] is 0.08%; in experiment [4], 0.08%; in experiment [5] it was 0.07%; in experiment [6] it was 0.1%; in [7] it was 0.09%.

Consider “SHLVEALYLVCGERG (listed as Homo sapiens) [native insulin]”, for which the “stimulation of CD4 T cells (CFSE proliferation and CD69 upregulation)” value with CD4 T cells [2] is on record as “no significant responses”. For the same molecule, the “formation of SDS-stable complexes” value in the experiment on HLA-DQ8 monomers is “did not form detectable DQ8 complexes”.

In the case of “SHLVEELYLVAGEEG (listed as Homo sapiens) [superagonist]”, the “potency relative to native insulin B:9-23” value in experiment [8] is “about 1000 fold”.

With “TP-Id: truncated version of x-Id that lacked cysteine and tryptophan at the terminals (ARQEDTAMVYYFDY)”, the “formation of SDS-stable complexes” value in the experiment on HLA-DQ8 monomers is “forming SDS-stable complexes”.

B1: HLA-DQ8 tetramer loaded with x-Id peptide (peptide-MHC, part only; not given: HLA-DQ8 alpha and beta chains, human, part only)
peptide: CARQEDTAMVYYFDYW
modifications: also: loaded in biotinylated HLA-DQ8 monomers tetramerized with PE-streptavidin
For the molecule B1, the tetramer+ among CD4 T cells in experiment [3] was found to be 0.36%; in [4], 0.35%; in experiment [5] it was 0.56%; in [6] it was 1.03%; in experiment [7] it was 1.07%.

These data come from patent US20220073963A1, “COMPOSITIONS AND METHODS FOR DETECTING AND TREATING TYPE 1 DIABETES AND OTHER AUTOIMMUNE DISEASES” (THE JOHNS HOPKINS UNIVERSITY, priority 2018, published 2022).
